We go through 30 sequences from the nanobody polyreactivity screen of Harvey et al. (2022).

The data set in a line: yeast display, Sf9 membrane polyspecificity reagent, FACS + sequencing; frameworks hold sequencing errors. In short, it runs like this: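 Galactose induction of a Saccharomyces cerevisiae BJ5465 synthetic nanobody display library ran 36–48 hours. The cells were then stained for 1 hour at 4 °C with 10% biotinylated, detergent-solubilized Sf9 membrane reagent, pulled down on streptavidin microbeads and FACS-sorted into low and high (top ~1%) gates on expression and reagent-binding fluorescence. Labels for polyreactivity follow the gate of origin.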
Regarding “QVQLVESGGGLVQAGGSLRLSCAASGSIFLPYAMGWYRQAPGKERELVAAITWGGDSTYADSVKGRFTISRDNAKNTVYLQMNSLKPEDTAVYYCAAGAGFESDYWGQGTQVTVSS”, the “polyreactivity (PSR sort gate)” value is “low polyreactivity”.

For the sequence “QVQLVESGGGLVQAGGSLRLSCAASGSIFLRIAMGWYRQAPGKERELVARIRGGGSTYYADSVKGRFTISRDNAKNTVYLQMNSLKPEDTAVYYCAKDYYKYADGYDYWGQGTQVTVSS”, the “polyreactivity (PSR sort gate)” value is “high polyreactivity”.

For the sequence “QVQLVESGGGLVQAGGSLRLSCAASGSIFLRYAMGWYRQAPGKERELVAAISGRGGSTYYADSVKGRFTISRDNAKNTVYLQMNSLKPEDTAVYYCAAYRGRSLEYDYWGQGTQVTVSS”, the “polyreactivity (PSR sort gate)” value was “high polyreactivity”.

As for “QVQLVESGGGLVQAGGSLRLSCAASGSIFLRYTMGWYRQAPGKETEFVAAITWTADSTYYADSVKGRFTISRDNAKNTVYLQMNSLKPEDTAVYYCAASYSTIWTLYYYWGQGTQVTVSS”, the “polyreactivity (PSR sort gate)” value is “low polyreactivity”.

“QVQLVESGGGLVQAGGSLRLSCAASGSIFLSYNMGRYRQAPGKERELVAAITSGGSTKYADSVKGRFTISRDNAKNTVYLQMNSLKPEDTAVYYCNATPYSRLGYWGQGTQVTVSS”: the “polyreactivity (PSR sort gate)” value is given as “high polyreactivity”.

For “QVQLVESGGGLVQAGGSLRLSCAASGSIFLVNALGWYRQAPGKERELVAAISWSGGSTYYAESVKGRFTISRDNAKNTVYLQMKSLKPEDTAVYYCAADWFAANYYVNTVSALDYWGLGTQVTVSS”, the “polyreactivity (PSR sort gate)” value is listed as “low polyreactivity”.

Turning to “QVQLVESGGGLVQAGGSLRLSCAASGSIFLVYAMGWYRQAPGKERELVAAISQRVGRTYYADSVKGRFTISRDNAKNTVYLQMNSLKPEDTAVYYCNARVYDPTRGFNYWGQGTQVTVSS”, the “polyreactivity (PSR sort gate)” value was “high polyreactivity”.

Turning to “QVQLVESGGGLVQAGGSLRLSCAASGSIFLVYAMGWYRQAPGKERELVAVISRGGITNYADSVKGRFTISGDNAKNTVYLQMNSLKPEDTAVYYCAAEPRPSWSRYTYGYWGQGTQVTVSS”, the “polyreactivity (PSR sort gate)” value is listed as “low polyreactivity”.

For “QVQLVESGGGLVQAGGSLRLSCAASGSIFLYNAMGWYRQAPGKERELVATITSSTGSTYYADSVKGRFTISRDNAKNTVYLQMNSLKPEDTAVYYCATRESRRQRRYYYWGQGTQVTLSS”, the “polyreactivity (PSR sort gate)” value is listed as “high polyreactivity”.

With “QVQLVESGGGLVQAGGSLRLSCAASGSIFLYYAMGWYRQAPGKERELVAGIRRGGRTNYADSVKGRFTISRDNAKNTVYLQMNSLKPEDTAVYYCAKGGYWGQGTQVTVSS”, the “polyreactivity (PSR sort gate)” value is given as “high polyreactivity”.

In the case of “QVQLVESGGGLVQAGGSLRLSCAASGSIFLYYAMGWYRQAPGKERELVATITKGGGSTYYADSVKGRFTISRDNAKNTVYLQMNSLKPEDTAVYYCAADAAHSEYDYWGQGTLVTVSS”, the “polyreactivity (PSR sort gate)” value is “high polyreactivity”.

Consider “QVQLVESGGGLVQAGGSLRLSCAASGSIFNANAMGWYRQAPGKEWELVARITRGGRTNYADSVKGRFTISRDNAKNTVYLQMNSLKPEDTAVYYCAAVYYVGFPHKYDYWGQGTQVNVSS”, for which the “polyreactivity (PSR sort gate)” value is “low polyreactivity”.

For the sequence “QVQLVESGGGLVQAGGSLRLSCAASGSIFNAYVMGWYRQAPGKERELVAAISRSGGRTYYADSVKGRFTISRDNAKNTVYLQMNSLKPEDNAVYYCAADYGGPYGQLDYWGQGTQVTVSS”, the “polyreactivity (PSR sort gate)” value is reported as “high polyreactivity”.

Turning to “QVQLVESGGGLVQAGGSLRLSCAASGSIFNGNAMGWYRQAPGKERELVAAISRNGGSTYYADSVKGRFTISRDNAKNTVYLQMNSLKPEDTAVYYCAVRKRPHGYLAFGYWGQGTQVTVSS”, the “polyreactivity (PSR sort gate)” value is listed as “low polyreactivity”.

As to “QVQLVESGGGLVQAGGSLRLSCAASGSIFNGNAMGWYRQAPGKERELVAAISRNRGSTYYADSVKGRFTISRDNAKNTVYLQMNSLKPEDTAVYYCPTDLTVYYSYYWMYWGQGTQVTVSS”, the “polyreactivity (PSR sort gate)” value is reported as “low polyreactivity”.

With “QVQLVESGGGLVQAGGSLRLSCAASGSIFNGNAMGWYRQAPGKERELVAAITRRGGRTYYADSVKGRFTISRDNAKNTVYLQMNSLKPDDTAVYYCNAYSKAVQGGYDYWGQGTQVTVSS”, the “polyreactivity (PSR sort gate)” value is “high polyreactivity”.

“QVQLVESGGGLVQAGGSLRLSCAASGSIFNGYVMGWYRQAPGKERELVAAISGSGGRTYYADSVKGRFTISRDNAKNTVYLQMNSLKPEDTAVYYCAAYPDLRDSRRIRYGYNYWGQGTQVTVSS”: the “polyreactivity (PSR sort gate)” value is given as “high polyreactivity”.

Regarding “QVQLVESGGGLVQAGGSLRLSCAASGSIFNGYVMGWYRQAPGKERELVASINRGGTTNYADSVKGRFTISRDNAKNTVYLQMNSLKPEDTAVYYCAVDDDANSLGGYYVLFDYWGQGTQVTVSS”, the “polyreactivity (PSR sort gate)” value is on record as “low polyreactivity”.

For “QVQLVESGGGLVQAGGSLRLSCAASGSIFNHYAMGWYRQAPGKERELVATITDGGSTYYADSVKGRFTISRDNAKNTVYLQMNSLKPEDTAVYYCATDRRRFWVIYYYWGQGTQVTVSS”, the “polyreactivity (PSR sort gate)” value is reported as “low polyreactivity”.

In the case of “QVQLVESGGGLVQAGGSLRLSCAASGSIFNINAMGWYRHAPGKERELVAVITSRDGRTYYADSVKGRFTISRDNAKNTVYLQMNSLKPEDTAVYYCAADVVNRHYYFWGQGTQVTVSS”, the “polyreactivity (PSR sort gate)” value is reported as “low polyreactivity”.

In the case of “QVQLVESGGGLVQAGGSLRLSCAASGSIFNIYDMGWSRQAPGKERELVAGISWDGDSTYYADSVKGRFTISRDNAKNTVYLQMNSLKPEDTAVEYCAAVYTRAHISYYYWGQGTQVTVSS”, the “polyreactivity (PSR sort gate)” value was “high polyreactivity”.

With “QVQLVESGGGLVQAGGSLRLSCAASGSIFNKYAMGWYRQAPGKERELVAAISVSGTRTYYADSVKGRFTISRDTAKNTVYLQMNSLKPEDTAVYYCATKFFRTAYEYWGQGTQVTVSS”, the “polyreactivity (PSR sort gate)” value was “high polyreactivity”.

Regarding “QVQLVESGGGLVQAGGSLRLSCAASGSIFNLYAMGWYRQAPGKERELVAGIRWSGGRTYYADSVKGRFTISRDNAKYTVYLQMNSLKPEDTAVYYCAAEYRSWRYTGYSYYYWGQGTQVTVSS”, the “polyreactivity (PSR sort gate)” value was “high polyreactivity”.

As to “QVQLVESGGGLVQAGGSLRLSCAASGSIFNNNAMGWYRQAPGKERELVADITASGGNTNYADSVKGRFTISRDNAKNTVYLQMNSLKPEDTAVYYCNAGGFYGTLFFPLDIYYVGYDYWGQGTQVTVSS”, the “polyreactivity (PSR sort gate)” value is “low polyreactivity”.

As for “QVQLVESGGGLVQAGGSLRLSCAASGSIFNPNAMGWYRQAPGKERELVAAISYSDATTYYADSVKGRFTISRDNAKNTVYLQMNSLKPEDTAVYYCAAEPAAGDYDYWGQGTQVTVSS”, the “polyreactivity (PSR sort gate)” value is on record as “high polyreactivity”.

Turning to “QVQLVESGGGLVQAGGSLRLSCAASGSIFNQYPMGWYRQAPGKERELVAAISSGSTYYADSVKGRFIISRDNAKITVYLQMNSMKAEDTAVNNCAKDRHSPYWAMDYWGQGTQVTVSS”, the “polyreactivity (PSR sort gate)” value is on record as “high polyreactivity”.

As to “QVQLVESGGGLVQAGGSLRLSCAASGSIFNRYAMGLYRQAPVKERELVAAISSTGSTYYADSVKGRFTISRDNAKNTVYLQMNSLKPEDTAVYYCATDDPLSQINEQGMDYWGQGTQVTVSS”, the “polyreactivity (PSR sort gate)” value is “low polyreactivity”.

Take “QVQLVESGGGLVQAGGSLRLSCAASGSIFNRYAMGWYRPAPGKEREFVARISKRGGGTYYADSVKGRFTISRDNAKNTVYLQMNSLKPEDTAVYYCAARAYDHTGHVGFDYWGQGTQVTVSS”: the “polyreactivity (PSR sort gate)” value is “high polyreactivity”.

On to “QVQLVESGGGLVQAGGSLRLSCAASGSIFNRYTMGWYRQAPGKERELVAAISKRGGSTYYADSVKGRFTISRDNAKNTVYLQMNSLKPEDSAVYYCAAAAYHSGNGGGYWGQGTQVSVSS”, for which the “polyreactivity (PSR sort gate)” value is “high polyreactivity”.

On to “QVQLVESGGGLVQAGGSLRLSCAASGSIFNSNGMGWYRPAPGKERELVAAITGGGSTNYADSVKGRFTISRDNAKNTVYLQMNSLKPEDTAVYYCAARPLRTDWAYYYWGQGTQVTVSS”, for which the “polyreactivity (PSR sort gate)” value is listed as “low polyreactivity”.
